In patent EP1506972A1 (Genentech Inc., dated 2005):

Assays:
Assay in all cases: competitive phage ELISA, soluble IGFBP-1 vs coated IGFBP-1
[1] = biological target: IGF-I I43A (G1S-A70V background) displayed on phage (human; bacteriophage M13)
[2] = biological target: IGF-I F25A (G1S-A70V background) displayed on phage (human; bacteriophage M13)
[3] = biological target: IGF-I S35A (G1S-A70V background) displayed on phage (human; bacteriophage M13)
[4] = biological target: Ala(1-3)-IGF-I, triple alanine mutant of the first three N-terminal amino acids, displayed on phage (human; bacteriophage M13)
[5] = biological target: IGF-I S34A (G1S-A70V background) displayed on phage (human; bacteriophage M13)
[6] = biological target: IGF-I G42A (G1S-A70V background) displayed on phage (human; bacteriophage M13)
[7] = biological target: IGF-I Y24A (G1S-A70V background) displayed on phage (human; bacteriophage M13)
[8] = biological target: IGF-I R21A (G1S-A70V background) displayed on phage (human; bacteriophage M13)
[9] = biological target: IGF-I T41A (G1S-A70V background) displayed on phage (human; bacteriophage M13)
[10] = biological target: IGF-I Q40A (G1S-A70V background) displayed on phage (human; bacteriophage M13)
[11] = biological target: IGF-I G19A (G1S-A70V background) displayed on phage (human; bacteriophage M13)
[12] = biological target: IGF-I G22A (G1S-A70V background) displayed on phage (human; bacteriophage M13)
[13] = biological target: IGF-I V44A (G1S-A70V background) displayed on phage (human; bacteriophage M13)
[14] = biological target: IGF-I F23A (G1S-A70V background) displayed on phage (human; bacteriophage M13)
[15] = biological target: IGF-I N26A (G1S-A70V background) displayed on phage (human; bacteriophage M13)
[16] = biological target: IGF-I D20A (G1S-A70V background) displayed on phage (human; bacteriophage M13)
[17] = biological target: IGF-I R37A (G1S-A70V background) displayed on phage (human; bacteriophage M13)
[18] = biological target: T1, IGF-I E9A (G1S-A70V background) displayed on phage (human; bacteriophage M13)
T1 construct: not shown: M13 gene III fragment (residues 249-406, display carrier) and the IGF-g3 junction
T1 chain: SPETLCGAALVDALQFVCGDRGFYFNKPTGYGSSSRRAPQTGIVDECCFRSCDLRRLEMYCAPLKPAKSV

[19] = biological target: T2, IGF-I R55A (G1S-A70V background) displayed on phage (human; bacteriophage M13)
T2 construct: not shown: Display carrier: M13 gene III protein fragment (residues 249-406) and the junction to it
T2 chain: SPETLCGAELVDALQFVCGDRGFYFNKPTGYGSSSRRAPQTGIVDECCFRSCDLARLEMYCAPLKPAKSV

[20] = biological target: T3, IGF-I L57A (G1S-A70V background) displayed on phage (human; bacteriophage M13)
T3 construct: not shown: M13 gene III fragment (residues 249-406), the display partner, and its junction to IGF-I
T3 chain: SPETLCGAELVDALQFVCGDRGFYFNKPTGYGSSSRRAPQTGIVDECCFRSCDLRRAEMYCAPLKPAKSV

[21] = biological target: T4, IGF-I K68A (G1S-A70V background) displayed on phage (human; bacteriophage M13)
T4 construct: not shown: Display carrier: M13 gene III protein fragment (residues 249-406) and its junction to Val70

[22] = biological target: T5, IGF-I P66A (G1S-A70V background) displayed on phage (human; bacteriophage M13)
T5 construct: not shown: Display carrier: M13 gene III protein fragment (residues 249-406) and its junction to Val70

[23] = biological target: T6, IGF-I F16A (G1S-A70V background) displayed on phage (human; bacteriophage M13)
T6 construct: not shown: M13 gene III fragment (residues 249-406, display carrier) and the IGF-g3 junction
T6 chain: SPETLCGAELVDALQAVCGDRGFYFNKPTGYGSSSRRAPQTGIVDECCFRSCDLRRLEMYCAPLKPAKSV

[24] = biological target: T7, IGF-I T29A (G1S-A70V background) displayed on phage (human; bacteriophage M13)
T7 construct: not shown: Display carrier: M13 gene III protein fragment (residues 249-406) and the junction to it
T7 chain: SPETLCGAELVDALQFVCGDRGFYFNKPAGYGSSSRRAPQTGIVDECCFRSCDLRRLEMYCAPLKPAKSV

IC50 [1]: 31.3 nM
relative IC50 (IC50mut/IC50 G1S-A70V) [1]: 3.8 fold
IC50 [2]: 181 nM
relative IC50 (IC50mut/IC50 G1S-A70V) [2]: 22.1 fold
IC50 [3]: 11.7 nM
relative IC50 (IC50mut/IC50 G1S-A70V) [3]: 1.4 fold
IC50 [4]: 90.4 nM
relative IC50 (IC50mut/IC50 G1S-A70V) [4]: 11 fold
IC50 [5]: 9.5 nM
relative IC50 (IC50mut/IC50 G1S-A70V) [5]: 1.2 fold
IC50 [6]: 15.7 nM
relative IC50 (IC50mut/IC50 G1S-A70V) [6]: 1.9 fold
IC50 [7]: 13.3 nM
relative IC50 (IC50mut/IC50 G1S-A70V) [7]: 1.6 fold
IC50 [8]: 7.1 nM
relative IC50 (IC50mut/IC50 G1S-A70V) [8]: 0.9 fold
IC50 [9]: 13.7 nM
relative IC50 (IC50mut/IC50 G1S-A70V) [9]: 1.7 fold
IC50 [10]: 10.2 nM
relative IC50 (IC50mut/IC50 G1S-A70V) [10]: 1.2 fold
IC50 [11]: 11 nM
relative IC50 (IC50mut/IC50 G1S-A70V) [11]: 1.3 fold
IC50 [12]: 15.9 nM
relative IC50 (IC50mut/IC50 G1S-A70V) [12]: 1.9 fold
IC50 [13]: 18.8 nM
relative IC50 (IC50mut/IC50 G1S-A70V) [13]: 2.3 fold
IC50 [14]: 10.9 nM
relative IC50 (IC50mut/IC50 G1S-A70V) [14]: 1.3 fold
IC50 [15]: 9.1 nM
relative IC50 (IC50mut/IC50 G1S-A70V) [15]: 1.1 fold
IC50 [16]: 8.4 nM
relative IC50 (IC50mut/IC50 G1S-A70V) [16]: 1 fold
IC50 [17]: 12.3 nM
relative IC50 (IC50mut/IC50 G1S-A70V) [17]: 1.5 fold
relative IC50 (IC50mut/IC50 G1S-A70V) [18]: 1 fold
relative IC50 (IC50mut/IC50 G1S-A70V) [19]: 1.1 fold
relative IC50 (IC50mut/IC50 G1S-A70V) [20]: 2.7 fold
relative IC50 (IC50mut/IC50 G1S-A70V) [21]: 1.3 fold
relative IC50 (IC50mut/IC50 G1S-A70V) [22]: 1.1 fold
relative IC50 (IC50mut/IC50 G1S-A70V) [23]: 7 fold
relative IC50 (IC50mut/IC50 G1S-A70V) [24]: 0.9 fold
B1: human IGFBP-1 (other, UniProt P08833 26-259, looked up)
chain: APWQCAPCSAEKLALCPPVSASCSEVTRSAGCGCCPMCALPLGAACGVATARCARGLSCRALPGEQQPLHALTRGQGACVQESDASAPHAAEAGSPESPESTEITEEELLDNFHLMAPSEEDHSILWDAISTYDGSKALHVTNIKKWKEPCRIELYRVVESLAKAQETSGEEISKFYLPNCNKNGFYHSRQCETSMDGEAGLCWCVYPWNGKRIPGSPEIRGDPNCQIYFNVQN
notes: Secreted recombinant protein
